Source: patent US7220822

What was measured:
[1] = target: CD80-Ig (extracellular domain of CD80 fused with the constant region of mouse IgG1 heavy chain) (mouse); assay: SPR (BIACORE), peptide over amine-coupled CD80-Ig, 37 C
[2] = target: CD80-Ig (extracellular domain of CD80 fused with the constant region of mouse IgG1 heavy chain) (mouse); assay: SPR direct kinetics, peptide 1.50E+03 nM over immobilized CD80-Ig
[3] = target: CD80-Ig (extracellular domain of CD80 fused with the constant region of mouse IgG1 heavy chain) (mouse); assay: SPR direct kinetics, peptide 3.00E+03 nM over immobilized CD80-Ig
[4] = target: CD80-Ig (extracellular domain of CD80 fused with the constant region of mouse IgG1 heavy chain) (mouse); assay: SPR direct kinetics, peptide 3.75E+02 nM over immobilized CD80-Ig
[5] = target: CD80-Ig (extracellular domain of CD80 fused with the constant region of mouse IgG1 heavy chain) (mouse); assay: SPR direct kinetics, peptide 6.00E+03 nM over immobilized CD80-Ig
[6] = target: CD80-Ig (extracellular domain of CD80 fused with the constant region of mouse IgG1 heavy chain) (mouse); assay: SPR direct kinetics, peptide 7.50E+02 nM over immobilized CD80-Ig
[7] = target: CD80-Ig (extracellular domain of CD80 fused with the constant region of mouse IgG1 heavy chain) (mouse); assay: SPR (BIACORE), direct binding to immobilized CD80-Ig, linear regression plot
[8] = target: CD80-Ig (extracellular domain of CD80 fused with the constant region of mouse IgG1 heavy chain) (mouse); assay: SPR competitive kinetics, average over peptide concentrations; competitor CD28-Ig
[9] = target: CD80-Ig (extracellular domain of CD80 fused with the constant region of mouse IgG1 heavy chain) (mouse); assay: SPR competitive kinetics, peptide 1 × 10^5 nM with 3.2 µM CD28-Ig (competitor) over captured CD80-Ig
[10] = target: CD80-Ig (extracellular domain of CD80 fused with the constant region of mouse IgG1 heavy chain) (mouse); assay: SPR competitive kinetics, peptide 2 × 10^5 nM with 3.2 µM CD28-Ig (competitor) over captured CD80-Ig
[11] = target: CD80-Ig (extracellular domain of CD80 fused with the constant region of mouse IgG1 heavy chain) (mouse); assay: SPR competitive kinetics, peptide 3 × 10^5 nM with 3.2 µM CD28-Ig (competitor) over captured CD80-Ig
[12] = target: CD80-Ig (extracellular domain of CD80 fused with the constant region of mouse IgG1 heavy chain) (mouse); assay: SPR competitive kinetics, peptide 0.5 × 10^5 nM with 3.2 µM CD28-Ig (competitor) over captured CD80-Ig
[13] = target: CD80-Ig (extracellular domain of CD80 fused with the constant region of mouse IgG1 heavy chain) (mouse); assay: SPR competitive kinetics, peptide 0.25 × 10^5 nM with 3.2 µM CD28-Ig (competitor) over captured CD80-Ig
[14] = target: CD80-Ig (extracellular domain of CD80 fused with the constant region of mouse IgG1 heavy chain) (mouse); assay: SPR competitive kinetics, peptide 0.125 × 10^5 nM with 3.2 µM CD28-Ig (competitor) over captured CD80-Ig
[15] = target: CD80-Ig (extracellular domain of CD80 fused with the constant region of mouse IgG1 heavy chain) (mouse); assay: SPR (BIACORE), EL CD28 peptide injected over amine-coupled CD80-Ig (1488 RU); slope of ln dR/dt vs t plotted against the peptide concentration, ka is the slope of this plot

## Ac-KIEFMYPPPYLDNERSNGTI-NH2 [EL-CD28 (end-blocked L CD28 peptide mimetic)]
[1]
  maximum response units: 668 RU
[2]
  koff: 0.242 s⁻¹
  kon: 115000 M⁻¹ s⁻¹
[3]
  koff: 0.214 s⁻¹
  kon: 137000 M⁻¹ s⁻¹
[4]
  koff: 0.399 s⁻¹
  kon: 246000 M⁻¹ s⁻¹
[5]
  koff: 0.273 s⁻¹
  kon: 111000 M⁻¹ s⁻¹
[6]
  koff: 0.274 s⁻¹
  kon: 110000 M⁻¹ s⁻¹
[7]
  Kd: 2340 nM
[8]
  Kd: 2790 nM
[9]
  Kd: 2540 nM
  koff: 0.0803 s⁻¹
  kon: 31600 M⁻¹ s⁻¹
[10]
  Kd: 1560 nM
  koff: 0.0862 s⁻¹
  kon: 55100 M⁻¹ s⁻¹
[11]
  Kd: 2920 nM
  koff: 6.89 s⁻¹
  kon: 2.36e+06 M⁻¹ s⁻¹
[12]
  Kd: 5000 nM
  koff: 0.316 s⁻¹
  kon: 63200 M⁻¹ s⁻¹
[13]
  Kd: 3360 nM
  koff: 0.0195 s⁻¹
  kon: 3360 M⁻¹ s⁻¹
[14]
  Kd: 1380 nM
  koff: 0.101 s⁻¹
  kon: 73400 M⁻¹ s⁻¹
[15]
  kon: 113000 M⁻¹ s⁻¹
